Assay results reported in article PMC4855633.

Target: fibrous bovine collagen I (bovine) (UniProt P02453)
UniProt P02453, sequence (P02453 162-1217, chain 1 of 2): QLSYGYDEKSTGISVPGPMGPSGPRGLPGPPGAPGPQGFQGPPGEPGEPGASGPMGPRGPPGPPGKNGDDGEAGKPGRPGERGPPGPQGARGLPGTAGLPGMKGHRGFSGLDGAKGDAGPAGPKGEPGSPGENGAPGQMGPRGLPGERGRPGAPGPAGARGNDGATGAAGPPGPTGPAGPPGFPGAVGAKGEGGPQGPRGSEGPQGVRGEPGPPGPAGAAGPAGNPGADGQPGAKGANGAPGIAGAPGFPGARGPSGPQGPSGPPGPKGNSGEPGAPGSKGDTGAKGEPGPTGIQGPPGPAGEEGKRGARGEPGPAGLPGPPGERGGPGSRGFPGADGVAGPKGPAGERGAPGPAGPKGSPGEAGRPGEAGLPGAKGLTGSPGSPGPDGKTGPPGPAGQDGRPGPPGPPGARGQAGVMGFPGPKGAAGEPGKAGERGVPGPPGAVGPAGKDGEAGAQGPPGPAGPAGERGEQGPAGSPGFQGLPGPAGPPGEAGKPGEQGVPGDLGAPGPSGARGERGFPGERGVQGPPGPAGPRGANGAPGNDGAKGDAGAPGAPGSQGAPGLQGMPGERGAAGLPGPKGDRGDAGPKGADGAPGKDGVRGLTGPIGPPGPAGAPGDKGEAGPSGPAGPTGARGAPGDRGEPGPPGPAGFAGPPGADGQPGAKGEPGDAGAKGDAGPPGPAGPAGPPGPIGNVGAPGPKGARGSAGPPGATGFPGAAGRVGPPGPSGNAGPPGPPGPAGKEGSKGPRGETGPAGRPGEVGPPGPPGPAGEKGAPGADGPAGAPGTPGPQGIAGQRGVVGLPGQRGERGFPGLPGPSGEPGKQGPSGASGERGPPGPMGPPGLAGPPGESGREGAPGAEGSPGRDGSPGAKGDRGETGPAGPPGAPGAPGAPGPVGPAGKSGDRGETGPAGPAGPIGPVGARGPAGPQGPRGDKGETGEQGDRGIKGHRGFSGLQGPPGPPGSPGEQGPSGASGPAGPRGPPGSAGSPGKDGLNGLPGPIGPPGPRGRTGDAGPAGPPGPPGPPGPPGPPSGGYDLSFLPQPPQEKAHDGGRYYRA
UniProt P02453, sequence (P02465 80-1117, chain 2 of 2, further chain): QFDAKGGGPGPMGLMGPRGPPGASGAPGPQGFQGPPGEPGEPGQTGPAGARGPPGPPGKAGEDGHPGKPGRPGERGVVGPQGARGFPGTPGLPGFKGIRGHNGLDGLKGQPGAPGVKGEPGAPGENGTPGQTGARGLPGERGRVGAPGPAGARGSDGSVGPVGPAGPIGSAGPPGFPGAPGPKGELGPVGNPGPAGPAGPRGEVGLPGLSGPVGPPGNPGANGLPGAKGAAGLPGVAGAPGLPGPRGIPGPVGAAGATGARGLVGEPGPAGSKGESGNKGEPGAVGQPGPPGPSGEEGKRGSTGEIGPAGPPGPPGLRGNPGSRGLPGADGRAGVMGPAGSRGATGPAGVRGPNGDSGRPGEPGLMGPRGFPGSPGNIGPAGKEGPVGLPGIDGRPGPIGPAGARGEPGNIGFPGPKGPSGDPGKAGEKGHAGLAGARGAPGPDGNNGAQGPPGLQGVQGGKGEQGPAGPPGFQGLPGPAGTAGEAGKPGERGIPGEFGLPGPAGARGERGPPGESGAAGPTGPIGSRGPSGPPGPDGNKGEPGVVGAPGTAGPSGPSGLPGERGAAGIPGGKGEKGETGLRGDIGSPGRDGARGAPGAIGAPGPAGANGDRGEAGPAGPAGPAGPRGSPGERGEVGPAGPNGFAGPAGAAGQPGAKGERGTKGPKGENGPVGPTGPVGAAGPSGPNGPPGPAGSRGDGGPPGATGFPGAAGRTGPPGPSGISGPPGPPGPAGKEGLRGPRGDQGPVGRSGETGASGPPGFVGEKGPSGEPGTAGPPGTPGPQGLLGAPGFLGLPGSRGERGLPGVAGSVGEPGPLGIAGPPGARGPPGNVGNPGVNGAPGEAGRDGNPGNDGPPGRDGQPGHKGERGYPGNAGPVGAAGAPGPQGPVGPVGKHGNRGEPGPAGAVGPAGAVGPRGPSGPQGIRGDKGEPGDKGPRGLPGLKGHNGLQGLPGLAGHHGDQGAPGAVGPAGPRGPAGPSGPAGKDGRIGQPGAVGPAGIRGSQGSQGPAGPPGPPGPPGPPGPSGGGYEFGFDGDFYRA

## glycoprotein VI (from UniProt Q9HCN6 21-339) (receptor)
  reduction of static adhesion of washed human platelets to fibrous collagen I by anti-GPVI scFv in the presence of EDTA, relative to EDTA alone: 40%
  reduction of static adhesion of washed human platelets to fibrous collagen I by anti-GPVI scFv in the presence of EDTA, relative to control: 70%
